The assay addresses T1, recombinant, purified Xenopus β-catenin (Xenopus, UniProt P26233 1-781).
T1 sequence: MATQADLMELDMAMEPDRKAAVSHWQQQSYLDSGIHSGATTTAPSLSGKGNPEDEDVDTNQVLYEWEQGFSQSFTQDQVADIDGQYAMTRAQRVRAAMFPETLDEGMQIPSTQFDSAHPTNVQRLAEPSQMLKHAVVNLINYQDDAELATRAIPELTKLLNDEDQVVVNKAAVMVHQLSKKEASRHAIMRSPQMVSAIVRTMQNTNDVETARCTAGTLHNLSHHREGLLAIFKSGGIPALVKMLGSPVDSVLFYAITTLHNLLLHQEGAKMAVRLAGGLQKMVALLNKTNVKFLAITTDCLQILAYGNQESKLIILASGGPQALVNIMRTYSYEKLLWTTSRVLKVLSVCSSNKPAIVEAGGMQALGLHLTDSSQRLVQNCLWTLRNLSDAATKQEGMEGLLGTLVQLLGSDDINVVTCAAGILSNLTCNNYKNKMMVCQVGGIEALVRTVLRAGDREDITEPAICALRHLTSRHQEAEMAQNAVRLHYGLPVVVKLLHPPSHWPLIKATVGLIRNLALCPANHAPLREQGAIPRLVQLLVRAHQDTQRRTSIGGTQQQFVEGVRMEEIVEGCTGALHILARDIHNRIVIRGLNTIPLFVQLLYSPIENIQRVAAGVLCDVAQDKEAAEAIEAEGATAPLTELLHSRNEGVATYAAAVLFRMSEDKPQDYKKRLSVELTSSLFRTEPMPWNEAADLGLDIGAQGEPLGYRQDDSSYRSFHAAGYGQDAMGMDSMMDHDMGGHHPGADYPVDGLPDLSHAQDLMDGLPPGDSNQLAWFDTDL
As to the kind of experiment: pull-down.

B1: Xenopus C-cadherin cytoplasmic domain GST fusion protein (domain or fragment)
chain: not shown
Turning to B1, the binding result was “binds”.

Source of the values: article PMC2172558 (The Journal of Cell Biology, 2004).
